The results in this text go back to patent publication US20150268247A1, “Assay for Screening of Anti-Viral Compounds That Inhibit Specific Interaction Interfaces Between Cullin5 and an ElonginB/ElonginC/ CBF-beta/HIV-1 Vif Complex” (UNIVERSITY OF ROCHESTER, priority 2012, published 2015).

This assay has as its target T1, Cul5(N) (Homo sapiens, UniProt Q93034, L345D/V341R).
T1 construct: GST with 3C protease site (N, cleaved yes); made in house; host or cells: E. coli BL21(DE3), as for VifC/EloB/C
T1 sequence (Q93034 with tags, fused parts or gaps V341R/L345D): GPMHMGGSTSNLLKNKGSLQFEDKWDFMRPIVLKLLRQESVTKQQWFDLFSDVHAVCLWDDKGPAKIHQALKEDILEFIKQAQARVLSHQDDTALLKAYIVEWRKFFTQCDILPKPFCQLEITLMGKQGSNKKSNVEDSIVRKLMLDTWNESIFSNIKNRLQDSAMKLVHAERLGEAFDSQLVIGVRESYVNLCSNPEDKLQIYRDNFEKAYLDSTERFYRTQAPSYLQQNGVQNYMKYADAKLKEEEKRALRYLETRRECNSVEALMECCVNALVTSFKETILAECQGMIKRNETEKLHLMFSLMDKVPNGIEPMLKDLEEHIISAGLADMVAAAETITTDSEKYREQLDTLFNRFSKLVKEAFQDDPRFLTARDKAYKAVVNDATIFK
The assay can be described thus: ITC titration of Cul5(N) to CBFβ alone. The following applies: FIG. 4D. The assay is classed as binding. For orientation: Isothermal titration calorimetry measures the heat released or taken up as one component is titrated into another.

Experimental: ITC experiments were conducted with a VP-ITC isothermal titration calorimeter (GE Healthcare) at temperatures ranging from 293.15 to 308.15 K using a reference power of 15 μcal s^−1 and a 307 rpm stirring rate. Purified protein was dialyzed for 8 h at 4° C. against 1300 volumes of ITC buffer A [0.125 M NaCl, 0.02 M HEPES (pH 7.4), 0.0002 M TCEP] or ITC buffer B [0.125 M NaCl, 0.02 M phosphate (pH 7.4), 0.0002 M TCEP]. Twenty-nine 10 μl aliquots of protein in the syringe were injected into the sample cell at time intervals ranging from 240 to 360 s. The concentration of protein in the syringe ranged from 120 to 210 μM, while the concentration of protein in the sample cell ranged from 12 to 27 μM. Errors in the thermodynamic parameters were obtained from the standard deviation resulting from average values with at least two replicates. […] As such, for all protein-into-protein experiments, the heats of injection were accounted for by subtracting the average heat of the last three injections from each data point of an experiment. All data were fit with the “One Set of Sites” curve-fitting model to determine the parameters Ka, n, and AH using the Origin software v7.0 (GE Healthcare). ΔG was calculated from ΔG=−RT ln Ka, where R=1.9872 cal K^−1 mol^−1, and T=absolute temperature (Kelvin). ΔS was calculated from the equation, ΔG=ΔH−TΔS.

B1: CBFβ: Recombinant human core-binding factor β subunit isoform 2 (protein, listed as Homo sapiens)
chain: MGHHHHHHLEVLFQGPPRVVPDQRSKFENEEFFRKLSRECEIKYTGFRDRPHEERQARFQNACRDGRSEIAFVATGTNLSLQFFPASWQGEQRQTPSREYVDLEREAGKVYLKAPMILNGVCVIWKGWIDLQRLDGMGCLEFDEERAQQEDALAQQAFEEARRRTREFEDRDRSHREEMEVRVSQLLAVTGKKTTRP
In the case of B1, the “interaction of CBFβ with Cul5(N) alone” value was “did not interact”.
